B1: Ribonuclease, P00648 (parent)
chain: MMKMEGIALKKRLSWISVCLLVLVSAAGMLFSTAAKTETSSHKAHTEAQVINTFDGVADYLQTYHKLPDNYITKSEAQALGWVASKGNLADVAPGKSIGGDIFSNREGKLPGKSGRTWREADINYTSGFRNSDRILYSSDWLIYKTTDHYQTFTKIR

In this data set the parent is B1. The conditions noted are these: Bacillus amyloliquefaciens; pH 6.3; 25 °C; Urea; Fluorescence; MES-NaOH 450 mM; reversible: yes; structure 1BNI; whole UniProt chain shown.

For the variant V92A, the “ddG of mutation (higher = less stable)” value was 1.17 kcal/mol, the denaturant m value worked out at 2.08 kcal/mol/M, the “denaturant midpoint (higher = more stable)” value (from here on “denaturant midpoint”) worked out at 3.6 M and the unfolding free energy turned out to be 7.65 kcal/mol.
As to V92T, the “ddG of mutation (higher = less stable)” value was 2.22 kcal/mol, the denaturant m value came to 1.99 kcal/mol/M, the “denaturant midpoint” value amounted to 3.3 M and the unfolding free energy came to 6.6 kcal/mol.
Take Y71F: the “ddG of mutation (higher = less stable)” value is -0.09 kcal/mol, the denaturant m value was determined as 1.95 kcal/mol/M, the “denaturant midpoint” value came out at 4.5 M and the unfolding free energy was found to be 8.91 kcal/mol.
The matching figures for Y64A: 1.67 kcal/mol, 2.02 kcal/mol/M, 3.5 M and 7.15 kcal/mol.
Turning to I102T, the “ddG of mutation (higher = less stable)” value is 1.24 kcal/mol, the denaturant m value stood at 1.84 kcal/mol/M, the “denaturant midpoint” value is 4.1 M and the unfolding free energy came to 7.58 kcal/mol.
On the same counts, the results for I102V are 0.63 kcal/mol, 1.85 kcal/mol/M, 4.4 M and 8.19 kcal/mol.
For the variant T63S, the “ddG of mutation (higher = less stable)” value was determined as 1.36 kcal/mol, the denaturant m value was determined as 2.03 kcal/mol/M, the “denaturant midpoint” value came out at 3.6 M and the unfolding free energy was 7.46 kcal/mol.
For I123V, the “ddG of mutation (higher = less stable)” value worked out at 0.98 kcal/mol, the denaturant m value stood at 1.89 kcal/mol/M, the “denaturant midpoint” value was 4.1 M and the unfolding free energy stood at 7.84 kcal/mol.
Regarding I123A, the “ddG of mutation (higher = less stable)” value amounted to 1.66 kcal/mol, the denaturant m value came to 1.99 kcal/mol/M, the “denaturant midpoint” value was found to be 3.6 M and the unfolding free energy worked out at 7.16 kcal/mol.
With E76G, the “ddG of mutation (higher = less stable)” value was determined as 2.05 kcal/mol, the denaturant m value is 1.84 kcal/mol/M, the “denaturant midpoint” value amounted to 3.6 M and the unfolding free energy worked out at 6.77 kcal/mol.
Consider Y125F, for which the “ddG of mutation (higher = less stable)” value came to 1.14 kcal/mol, the denaturant m value is 1.98 kcal/mol/M, the “denaturant midpoint” value came out at 3.8 M and the unfolding free energy is 7.68 kcal/mol.
I98V: the “ddG of mutation (higher = less stable)” value was 1.13 kcal/mol, the denaturant m value turned out to be 2.11 kcal/mol/M, the “denaturant midpoint” value turned out to be 3.6 M and the unfolding free energy turned out to be 7.69 kcal/mol.
Turning to I98A, the “ddG of mutation (higher = less stable)” value was determined as 4.72 kcal/mol, the denaturant m value is 1.9 kcal/mol/M, the “denaturant midpoint” value turned out to be 2.1 M and the unfolding free energy came out at 4.1 kcal/mol.
For K109R, the “ddG of mutation (higher = less stable)” value was 0.32 kcal/mol, the denaturant m value was determined as 1.95 kcal/mol/M, the “denaturant midpoint” value worked out at 4.3 M and the unfolding free energy amounted to 8.5 kcal/mol.
On the same counts, the results for T146V are 2.92 kcal/mol, 1.84 kcal/mol/M, 3.2 M and 5.9 kcal/mol.
With N88D, the “ddG of mutation (higher = less stable)” value was found to be 2.62 kcal/mol, the denaturant m value turned out to be 1.89 kcal/mol/M, the “denaturant midpoint” value amounted to 3.2 M and the unfolding free energy is 6.2 kcal/mol.
Regarding S139A, the “ddG of mutation (higher = less stable)” value amounted to 3.22 kcal/mol, the denaturant m value is 1.78 kcal/mol/M, the “denaturant midpoint” value stood at 3.1 M and the unfolding free energy was 5.6 kcal/mol.
For I156V, the “ddG of mutation (higher = less stable)” value is 0.81 kcal/mol, the denaturant m value was 1.92 kcal/mol/M, the “denaturant midpoint” value is 4.1 M and the unfolding free energy came to 8.01 kcal/mol.
The matching figures for I156A: 1.27 kcal/mol, 2.15 kcal/mol/M, 3.5 M and 7.55 kcal/mol.
As for N70A, the “ddG of mutation (higher = less stable)” value was determined as 2.2 kcal/mol, the denaturant m value is 1.94 kcal/mol/M, the “denaturant midpoint” value came out at 3.4 M and the unfolding free energy was 6.62 kcal/mol.
Consider D101A, for which the “ddG of mutation (higher = less stable)” value was found to be 2.86 kcal/mol, the denaturant m value worked out at 1.95 kcal/mol/M, the “denaturant midpoint” value worked out at 3 M and the unfolding free energy was determined as 5.96 kcal/mol.
Take D101N: the “ddG of mutation (higher = less stable)” value was found to be 1.78 kcal/mol, the denaturant m value turned out to be 2.11 kcal/mol/M, the “denaturant midpoint” value was 3.3 M and the unfolding free energy was determined as 7.04 kcal/mol.
As to N124A, the “ddG of mutation (higher = less stable)” value turned out to be 1.45 kcal/mol, the denaturant m value is 1.98 kcal/mol/M, the “denaturant midpoint” value came out at 3.7 M and the unfolding free energy came out at 7.37 kcal/mol.
On the same counts, the results for N131A are 1.59 kcal/mol, 2.04 kcal/mol/M, 3.5 M and 7.23 kcal/mol.
Consider I135A, for which the “ddG of mutation (higher = less stable)” value was 4.02 kcal/mol, the denaturant m value was found to be 1.94 kcal/mol/M, the “denaturant midpoint” value was 2.4 M and the unfolding free energy is 4.8 kcal/mol.
As to I135V, the “ddG of mutation (higher = less stable)” value was found to be 1.64 kcal/mol, the denaturant m value was found to be 1.85 kcal/mol/M, the “denaturant midpoint” value was 3.8 M and the unfolding free energy came out at 7.18 kcal/mol.
The matching figures for Q78S: -0.07 kcal/mol, 2 kcal/mol/M, 4.4 M and 8.89 kcal/mol.
With Y150F, the “ddG of mutation (higher = less stable)” value came out at 0.18 kcal/mol, the denaturant m value was determined as 1.89 kcal/mol/M, the “denaturant midpoint” value stood at 4.5 M and the unfolding free energy came out at 8.64 kcal/mol.
On the same counts, the results for V83A are 1.68 kcal/mol, 1.83 kcal/mol/M, 3.9 M and 7.14 kcal/mol.
V83T: the “ddG of mutation (higher = less stable)” value was 1.05 kcal/mol, the denaturant m value was determined as 1.95 kcal/mol/M, the “denaturant midpoint” value stood at 3.9 M and the unfolding free energy worked out at 7.77 kcal/mol.
As to N105D, the “ddG of mutation (higher = less stable)” value was -0.31 kcal/mol, the denaturant m value is 1.9 kcal/mol/M, the “denaturant midpoint” value amounted to 4.8 M and the unfolding free energy turned out to be 9.13 kcal/mol.
Regarding N105A, the “ddG of mutation (higher = less stable)” value is 2 kcal/mol, the denaturant m value came out at 1.97 kcal/mol/M, the “denaturant midpoint” value stood at 3.4 M and the unfolding free energy was 6.82 kcal/mol.
Take K74G: the “ddG of mutation (higher = less stable)” value stood at 0.38 kcal/mol, the denaturant m value amounted to 1.94 kcal/mol/M, the “denaturant midpoint” value was 4.3 M and the unfolding free energy was determined as 8.44 kcal/mol.
Consider S138A, for which the “ddG of mutation (higher = less stable)” value was found to be 2.41 kcal/mol, the denaturant m value came to 1.79 kcal/mol/M, the “denaturant midpoint” value was determined as 3.5 M and the unfolding free energy stood at 6.41 kcal/mol.
On the same counts, the results for R157A are -0.07 kcal/mol, 2.03 kcal/mol/M, 4.3 M and 8.89 kcal/mol.
Consider L136T, for which the “ddG of mutation (higher = less stable)” value was 3.28 kcal/mol, the denaturant m value came out at 1.78 kcal/mol/M, the “denaturant midpoint” value is 3.1 M and the unfolding free energy was 5.54 kcal/mol.
On the same counts, the results for L136V are 0.47 kcal/mol, 1.89 kcal/mol/M, 4.4 M and 8.35 kcal/mol.
On the same counts, the results for I72A are 3.68 kcal/mol, 1.85 kcal/mol/M, 2.7 M and 5.14 kcal/mol.
As to I72V, the “ddG of mutation (higher = less stable)” value was 0.83 kcal/mol, the denaturant m value was 2 kcal/mol/M, the “denaturant midpoint” value was found to be 4 M and the unfolding free energy turned out to be 7.99 kcal/mol.
The matching figures for T152V: 2.14 kcal/mol, 1.95 kcal/mol/M, 3.4 M and 6.68 kcal/mol.
Consider T73G, for which the “ddG of mutation (higher = less stable)” value stood at 1.01 kcal/mol, the denaturant m value amounted to 2.03 kcal/mol/M, the “denaturant midpoint” value stood at 3.8 M and the unfolding free energy came out at 7.81 kcal/mol.
The matching figures for T73A: 1.67 kcal/mol, 2 kcal/mol/M, 3.5 M and 7.15 kcal/mol.
On to I143V, for which the “ddG of mutation (higher = less stable)” value was found to be 1.02 kcal/mol, the denaturant m value was 1.9 kcal/mol/M, the “denaturant midpoint” value was 4.1 M and the unfolding free energy was 7.8 kcal/mol.
Take I143A: the “ddG of mutation (higher = less stable)” value is 3.15 kcal/mol, the denaturant m value was 1.96 kcal/mol/M, the “denaturant midpoint” value is 2.8 M and the unfolding free energy stood at 5.67 kcal/mol.

These data come from FireProtDB (doi:10.1016/0022-2836(92)90562-x).
